In patent publication US20250388666A1 (BRIGHAM AND WOMEN S HOSPITAL, published 2025):
Numbering of substitutions follows the chain as printed. In names and notes the source's numbering stands. Like-named read-outs stand apart in the source and are kept apart here.

T1: CEACAM1 (Sino Biological) (human, UniProt P13688 35-428, limits assumed)
T1 construct: may be the same as CEACAM1-HIS; also called hCEACAM1; biotinylated soluble CEACAM1
T1 sequence: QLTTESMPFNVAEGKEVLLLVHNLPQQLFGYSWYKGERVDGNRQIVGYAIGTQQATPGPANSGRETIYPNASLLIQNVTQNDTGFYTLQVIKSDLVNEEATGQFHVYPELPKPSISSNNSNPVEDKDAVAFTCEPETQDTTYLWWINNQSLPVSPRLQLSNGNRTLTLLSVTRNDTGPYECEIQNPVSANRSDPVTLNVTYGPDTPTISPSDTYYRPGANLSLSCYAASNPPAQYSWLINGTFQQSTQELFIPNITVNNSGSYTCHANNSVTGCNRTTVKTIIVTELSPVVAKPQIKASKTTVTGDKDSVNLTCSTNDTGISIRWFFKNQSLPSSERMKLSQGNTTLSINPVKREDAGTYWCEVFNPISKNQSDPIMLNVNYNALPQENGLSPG

T2: CEACAM3 (Sino Biological) (human, UniProt P40198 35-155, limits assumed)
T2 construct: also called hCEACAM3
T2 sequence (looked up): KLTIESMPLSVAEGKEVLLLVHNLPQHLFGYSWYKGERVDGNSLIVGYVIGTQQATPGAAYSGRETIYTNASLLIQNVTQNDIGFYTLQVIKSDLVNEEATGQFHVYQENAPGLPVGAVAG

T3: CEACAM5 (Sino Biological) (human, UniProt P06731 35-685)
T3 construct: also called hCEACAM5
T3 sequence (looked up): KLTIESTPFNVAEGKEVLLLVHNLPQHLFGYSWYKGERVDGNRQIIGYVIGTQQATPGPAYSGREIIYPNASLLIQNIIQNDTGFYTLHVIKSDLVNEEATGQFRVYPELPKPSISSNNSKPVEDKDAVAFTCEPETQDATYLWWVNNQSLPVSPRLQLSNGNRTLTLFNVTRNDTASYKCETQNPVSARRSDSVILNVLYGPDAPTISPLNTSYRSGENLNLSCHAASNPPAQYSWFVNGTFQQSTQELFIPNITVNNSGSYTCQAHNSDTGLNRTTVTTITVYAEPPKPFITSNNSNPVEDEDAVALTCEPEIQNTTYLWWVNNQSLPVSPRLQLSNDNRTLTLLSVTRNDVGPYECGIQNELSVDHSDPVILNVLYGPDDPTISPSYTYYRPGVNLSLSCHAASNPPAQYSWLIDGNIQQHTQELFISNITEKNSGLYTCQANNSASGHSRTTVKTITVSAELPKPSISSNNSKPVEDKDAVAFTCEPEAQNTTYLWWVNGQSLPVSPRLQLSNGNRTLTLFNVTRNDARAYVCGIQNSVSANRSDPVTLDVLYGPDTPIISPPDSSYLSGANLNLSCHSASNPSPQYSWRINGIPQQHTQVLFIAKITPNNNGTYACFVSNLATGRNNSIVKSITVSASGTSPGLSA

T4: CEACAM6 (Sino Biological) (human, UniProt P40199 35-320)
T4 construct: also called hCEACAM6
T4 sequence (looked up): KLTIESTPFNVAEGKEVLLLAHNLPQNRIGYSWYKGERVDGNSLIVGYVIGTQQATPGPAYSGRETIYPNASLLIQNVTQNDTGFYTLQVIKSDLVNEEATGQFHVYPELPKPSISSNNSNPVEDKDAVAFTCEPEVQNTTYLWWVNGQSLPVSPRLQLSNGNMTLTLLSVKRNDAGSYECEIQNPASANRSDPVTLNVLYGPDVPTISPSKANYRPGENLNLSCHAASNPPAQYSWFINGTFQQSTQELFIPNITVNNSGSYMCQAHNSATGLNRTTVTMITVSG

B1: parent VH2 N56Q/Vκ4 S27(f)A scFv displayed on phage (scFv)
scFv: EVQLLESGGGLVQPGGSLRLSCAASGFSFSDYYLYWVRQAPGKGLEWVATISVGGGQTSYADSVKGRFTISRDNSKNTLYLQMNSLRAEDTAMYYCTRGLYYGPAWFAYWGQGTLVTVSSGGGGSGGGGSGGGGSDIVMTQSPDSLAVSLGERATINCKSSQSLLNSANQKNYLAWYQQKPGQPPKLLIYFASTRESGVPDRFSGSGSGTDFTLTISSLQAEDVAVYYCQQHYSTPWTFGGGTKVEIK
notes: also called parent scFv hyper phage; parent M13 helper phage; not shown: C-terminal Flag tag and gene III fusion
B2: He3/L20 (antibody, IgG4, V domains shown)
VH: EVQLLESGGGLVQPGGSLRLSCAASGFSFSDYYLYWVRQAPGKGLEWVATISVGGGQTSYADSVKGRFTISRDNSKNTLYLQMNSLRAEDTAMYYCTRALTYGPAWLAYWGQGTLVTVSS
VL: DIVMTQSPDSLAVSLGERATINCKSSQSLLNSANQKNYLAWYQQKPGQPPKLLIYFASTRESGVPDRFSGSGSGTDFTLTISSLQAEDVAVYYCQSHFPYPLTFGGGTKVEIK
notes: IgG4 S241P, kappa; also called He3 / 20
B3: Parent VH/L1 (antibody, IgG4, V domains shown)
VH: B2 VH with A99G, T101Y, L107F
VL: B2 VL with F98Y, Y100F, P101Y, L102Y
notes: IgG4 S241P, kappa; also called VHp/L1; VH2 N56Q / 1
B4: He9/L6 (antibody, IgG4, V domains shown)
VH: B2 VH with T97A, L100M, T101Y, L107F
VL: B2 VL with F98Y, Y100F, P101S, L102F
notes: IgG4 S241P, kappa; also called He9 / 6

What was measured:
[1] = target: T1, CEACAM1 (Sino Biological); assay: phage binding assay
[2] = target: T1, CEACAM1 (Sino Biological); assay: SPR single-cycle
Procedure, shortened: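 Humanized affinity-matured IgGs from crude supernatants captured on Protein A to ~100 RU, with CEACAM1 analyte injected at 25–100 nM (three-point, two-fold) in HBS-P+ without regeneration. 200 s association per injection, 300 s single dissociation; reference-channel and blank subtracted.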

[3] = target: T1, CEACAM1 (Sino Biological); assay: SPR multi-cycle, IgG on Protein A
[4] = target: T2, CEACAM3 (Sino Biological); assay: binding ELISA on plate-coated CEACAM (0.5 µg/mL); antibody at 1.67, 0.062 and 0.0069 µg/mL; signal as % of parent IgG on CEACAM1 at 1.67 µg/mL on the same plate
[5] = target: T3, CEACAM5 (Sino Biological); assay: as above
[6] = target: T4, CEACAM6 (Sino Biological); assay: as above
[7] = target: T2, CEACAM3 (Sino Biological); assay: as above; remark: listed apart in the source
[8] = target: T3, CEACAM5 (Sino Biological); assay: as above; remark: listed apart in the source
[9] = target: T4, CEACAM6 (Sino Biological); assay: as above; remark: listed apart in the source
[10] = target: T2, CEACAM3 (Sino Biological); assay: as above; remark: listed apart in the source

| Binder | binding result [1] | Kd [2] | fold better than Parent (KD) [2] | Kd [3] | koff [3] | kon [3] | relative KD to Parent [3] | binding result [4] | binding result [5] | binding result [6] | binding result [7] | binding result [8] | binding result [9] | binding result [10] |
| --- | --- | --- | --- | --- | --- | --- | --- | --- | --- | --- | --- | --- | --- | --- |
| B1 | binds | – | – | – | – | – | – | – | – | – | – | – | – | – |
| B2 | – | 74 nM | 2.15 fold | 25.5 nM | 0.0078 s⁻¹ | 306000 M⁻¹ s⁻¹ | 3.34 ratio | no binding (tested: 1.67 µg/mL) | no binding (tested: 1.67 µg/mL) | no binding (tested: 1.67 µg/mL) | – | – | – | – |
| B3 | – | 41 nM | 3.87 fold | 125 nM | 0.00413 s⁻¹ | 33100 M⁻¹ s⁻¹ | 0.68 ratio | – | – | – | no binding (tested: 1.67 µg/mL) | no binding (tested: 1.67 µg/mL) | no binding (tested: 1.67 µg/mL) | – |
| B4 | – | 22 nM | 7.1 fold | 39.6 nM | 0.00151 s⁻¹ | 38100 M⁻¹ s⁻¹ | 4.82 ratio | – | – | – | – | – | – | no binding (tested: 1.67 µg/mL) |
